The results in this text go back to publication PMC5587771.

Where two headings read alike, the source gives them in different places.

For orientation: Kd means the concentration at which binding is half-saturated. High values mean a looser complex, low ones a tighter complex.

Data set [1] addresses T1, SmAP2 (Sulfolobus solfataricus, UniProt Q980S8 1-87). As to the kind of experiment: MST.
The target of data set [2] is SmAP2 T40H (Sulfolobus solfataricus, UniProt Q980S8 1-87, T40H). In words: EMSA. In general terms: In EMSA bound probe runs differently from free probe, usually more slowly.
The target in data set [3] is T2, SmAP1 (Sulfolobus solfataricus, UniProt Q97ZQ0 1-79).
T2 sequence: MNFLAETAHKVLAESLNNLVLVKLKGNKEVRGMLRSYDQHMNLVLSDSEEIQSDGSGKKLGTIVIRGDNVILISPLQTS
As to the kind of experiment: EMSA.

Data set [4] has as its target SmAP2, NT-647 labelled (Sulfolobus solfataricus, UniProt Q980S8 1-87). In words: MST.
Data set [5] addresses T1, SmAP2. As to the kind of experiment: MST. This is another data set of the same source.

For GGAUGGAUAUUAGGAAAUG (ssRNA) [SmAP2-cRBM, FAM], binding in data set [1] was put at a Kd of 32.7 ± 14.4 nM. The binding result in data set [2] and in data set [3] was “no binding” in each case.

Molecule UUUUUUUUUUUUUUU (ssRNA) [poly(U)15] displayed a Kd in data set [4] of 426 ± 92 nM.

GGAUGGAUAUUAGGAAAUG (ssRNA) [SmAP2-cRBM] returned a Kd in data set [4] of 42.1 ± 17.8 nM.

In data set [5], GGAGAUAUAGUAGGAUAG (ssRNA) [2194-RBM] gave a Kd of 14.4 ± 3.3 nM.

In data set [5], GGAUGGAUAUUAGGUACUGGG (ssRNA) [1742-RBM] displayed a Kd of 5.9 ± 5.5 nM.
